Results published in US20180044434A1 (PUBLIC UNIVERSITY CORPORATION YOKOHAMA CITY UNIVERSITY, published 2018).
Positions count from the first letter of the chain named. Where two headings read alike, the source gives them in different places.

Experiments:
[1] = target: T1, full-length recombinant human PAD4 (human, UniProt Q9UM07 1-663); assay: ELISA, immobilized human PAD4
T1 construct: Full-length recombinant; also called peptidylarginine deiminase 4

[2] = target: T1, full-length recombinant human PAD4; assay: ELISA, immobilized human PAD4; remark: listed apart in the source
[3] = target: T1, full-length recombinant human PAD4; assay: ELISA, immobilized human PAD4; remark: listed apart in the source
[4] = target: T1, full-length recombinant human PAD4; assay: SPR (Biacore T200), antibody captured, human PAD4 analyte
Source text: The humanized anti-PAD4 antibodies derived from G8 and H7 were subjected to Biacore (GE Healthcare, Biacore T200) assay to evaluate their affinity. At that time, the combination of the frameworks was such that the H-chain framework was H4.00 and the L-chain framework was L4.29. The class of each antibody used was IgG1κ. Full-length recombinant human PAD4 was used as an antigen. A Human Antibody Capture kit (GE Healthcare, BR-1008-39) was used for the affinity assay. Specifically, in accordance with the standard protocol provided by the manufacture, NHS/EDC was used and an amine coupling method, in which a free carboxyl group is fixed on a surface of a CM5 chip, was used to immobilize a rabbit anti-human polyclonal antibody on the surface of a CM5 chip. Next, the humanized anti-PAD4 antibodies were each captured by the rabbit anti-human polyclonal antibody. Human PAD4 at each concentration was subjected to Biacore T200 measurement to create a kinetic sensorgram.

[5] = target: T1, full-length recombinant human PAD4; assay: ELISA, immobilized human PAD4; remark: listed apart in the source

T1 sequence (Q9UM07 whole entry): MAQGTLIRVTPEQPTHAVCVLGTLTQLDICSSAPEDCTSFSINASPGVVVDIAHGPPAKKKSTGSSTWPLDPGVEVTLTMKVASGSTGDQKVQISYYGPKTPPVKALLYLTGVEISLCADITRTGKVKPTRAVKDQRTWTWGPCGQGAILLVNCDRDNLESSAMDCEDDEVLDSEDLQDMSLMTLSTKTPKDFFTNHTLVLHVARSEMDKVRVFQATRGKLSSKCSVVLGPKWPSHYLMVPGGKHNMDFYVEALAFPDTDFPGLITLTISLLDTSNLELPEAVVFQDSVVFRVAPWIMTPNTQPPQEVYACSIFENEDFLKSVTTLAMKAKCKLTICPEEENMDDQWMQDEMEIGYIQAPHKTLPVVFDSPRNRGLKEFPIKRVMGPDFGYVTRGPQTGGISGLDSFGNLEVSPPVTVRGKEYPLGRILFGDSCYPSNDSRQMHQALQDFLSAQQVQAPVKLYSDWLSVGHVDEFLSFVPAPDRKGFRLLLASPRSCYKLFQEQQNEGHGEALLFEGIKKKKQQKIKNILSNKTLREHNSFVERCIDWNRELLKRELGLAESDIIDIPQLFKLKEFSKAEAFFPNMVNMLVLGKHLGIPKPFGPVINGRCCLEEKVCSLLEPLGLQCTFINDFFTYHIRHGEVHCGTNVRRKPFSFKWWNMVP

B1: H7-derived, humanized anti-PAD4 antibody (IgG4A) (antibody)
heavy: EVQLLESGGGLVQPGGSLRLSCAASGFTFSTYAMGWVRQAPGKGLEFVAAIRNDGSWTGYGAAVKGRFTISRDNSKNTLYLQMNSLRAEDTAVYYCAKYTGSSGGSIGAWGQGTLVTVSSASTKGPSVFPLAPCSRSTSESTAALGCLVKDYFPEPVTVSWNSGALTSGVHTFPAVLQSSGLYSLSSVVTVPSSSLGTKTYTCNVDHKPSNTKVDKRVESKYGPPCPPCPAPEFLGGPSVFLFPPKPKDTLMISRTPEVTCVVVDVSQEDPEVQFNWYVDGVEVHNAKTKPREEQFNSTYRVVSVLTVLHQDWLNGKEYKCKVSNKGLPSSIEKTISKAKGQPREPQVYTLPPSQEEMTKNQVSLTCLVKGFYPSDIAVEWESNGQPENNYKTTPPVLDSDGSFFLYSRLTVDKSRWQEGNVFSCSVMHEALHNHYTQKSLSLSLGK
light: SYELTQPPSVSVSPGQTARITCSGGSGRYYYGWYQQKPGQAPVTVIYSSTHRPSGIPERFSGSNSGSTTTLTISGVQAEDEADYYCGTADSSSYVFGGGTKLTVLGQPKAAPSVTLFPPSSEELQANKATLVCLISDFYPGAVTVAWKADSSPVKAGVETTTPSKQSNNKYAASSYLSLTPEQWKSHRSYSCQVTHEGSTVEKTVAPTECS
notes: it may be this one; also called humanized anti-PAD4 antibody (IgG4A) derived from H7
With B1 the “EC50 (read off the curve)” value [1] was roughly 4 ng/mL.

B2: humanized anti-PAD4 antibody derived from G8, VH H4.00 / VL L4.00 (antibody, human IgG1, kappa, V domains shown)
VH: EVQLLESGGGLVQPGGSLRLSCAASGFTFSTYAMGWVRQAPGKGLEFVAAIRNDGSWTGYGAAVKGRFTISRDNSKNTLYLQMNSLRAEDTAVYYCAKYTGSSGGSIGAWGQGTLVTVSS
VL: SYELTQPPSVSVSPGQTARITCSGGNRNYYYGWYQQKPGQAPVLVIYANDKRPSGIPERFSGSSSGTTVTLTISGVQAEDEADYYCGTADTGKYVFGGGTKLTVLG
notes: IgG1 kappa; also called G8 H4.00/L4.00
In the case of B2, the “O.D. 490/630 at 0.0078125 µg/mL” value [2] is reported as 0.131, the “O.D. 490/630 at 0.015625 µg/mL” value [2] is reported as 0.247 and the “O.D. 490/630 at 0.03125 µg/mL” value [2] is reported as 0.454. For the same binder, the “O.D. 490/630 at 0.0625 µg/mL” value [2] was 0.806, the “O.D. 490/630 at 0.125 µg/mL” value [2] was 1.31 and the “O.D. 490/630 at 0.25 µg/mL” value [2] was 1.7. For the same binder, the “O.D. 490/630 at 0.5 µg/mL” value [2] was 1.84, the “O.D. 490/630 at 1 µg/mL” value [2] was 1.88 and the “EC50 (read off the curve)” value [3] was roughly 80 ng/mL.

B3: humanized anti-PAD4 antibody derived from G8, VH H4.32 / VL L4.29 (antibody, IgG1, V domains shown)
VH: EVQLLESGGGLVQPGGSLRLSCAASGFTFSTYAMGWVRQAPGKGLEFVAAIRNDGSWTGYGAAVKGRVTISRDNSKNTVYLQMNSLRAEDTAVYYCAKYTGSSGGSIGAWGQGTLVTVSS
VL: B2 VL with L44T, S64N, T67S, V69T
notes: IgG1 kappa; also called G8 H4.32/L4.29
In the case of B3, the “O.D. 490/630 at 0.0078125 µg/mL” value [2] is reported as 1.26, the “O.D. 490/630 at 0.015625 µg/mL” value [2] is reported as 1.69 and the “O.D. 490/630 at 0.03125 µg/mL” value [2] is reported as 1.88. The “O.D. 490/630 at 0.0625 µg/mL” value [2] was 1.9, the “O.D. 490/630 at 0.125 µg/mL” value [2] was 1.89 and the “O.D. 490/630 at 0.25 µg/mL” value [2] was 1.85. For the same binder, the “O.D. 490/630 at 0.5 µg/mL” value [2] was 1.84 and the “O.D. 490/630 at 1 µg/mL” value [2] was 1.84.

B4: Humanized Ab #H7-H4.00/L4.29 (antibody, human IgG1, kappa)
heavy: not shown
light: SYELTQPPSVSVSPGQTARITCSGGSGRYYYGWYQQKPGQAPVTVIYSSTHRPSGIPERFSGSNSGSTTTLTISGVQAEDEADYYCGTADSSSYVFGGGTKLTVLGTVAAPSVFIFPPSDEQLKSGTASVVCLLNNFYPREAKVQWKVDNALQSGNSQESVTEQDSKDSTYSLSSTLTLSKADYEKHKVYACEVTHQGLSSPVTKSFNRGEC
notes: also called humanized anti-PAD4 antibody derived from H7 (IgG1 kappa)
B4 was tested, and the Kd [4] was 8.28 nM, the koff [4] was 0.000507 s⁻¹ and the kon [4] was 61300 M⁻¹ s⁻¹. For the same binder, the “EC50 (read off the curve)” value [5] was roughly 3 ng/mL, the “O.D. 490/630 at 0 µg/mL (blank)” value [5] was 0.083 and the “O.D. 490/630 at 0.000064 µg/mL” value [5] was 0.13. For the same binder, the “O.D. 490/630 at 0.00032 µg/mL” value [5] was 0.269, the “O.D. 490/630 at 0.0016 µg/mL” value [5] was 0.766 and the “O.D. 490/630 at 0.008 µg/mL” value [5] was 1.72. For the same binder, the “O.D. 490/630 at 0.04 µg/mL” value [5] was 2.1, the “O.D. 490/630 at 0.2 µg/mL” value [5] was 2.07 and the “O.D. 490/630 at 1 µg/mL” value [5] was 2.08.

B5: Humanized Ab #G8-H4.00/L4.29 (antibody, human IgG1, kappa, V domains shown)
VH: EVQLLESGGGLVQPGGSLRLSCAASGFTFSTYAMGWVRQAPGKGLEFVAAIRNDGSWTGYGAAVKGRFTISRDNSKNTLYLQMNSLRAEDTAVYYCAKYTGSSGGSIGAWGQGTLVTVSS
VL: B2 VL with L44T, S64N, T67S, V69T
notes: also called humanized anti-PAD4 antibody derived from G8 (IgG1 kappa); G8 VH H4.00 / VL L4.29
In the case of B5, the “O.D. 490/630 at 0.0078125 µg/mL” value [2] is reported as 1.2, the “O.D. 490/630 at 0.015625 µg/mL” value [2] is reported as 1.55 and the “O.D. 490/630 at 0.03125 µg/mL” value [2] is reported as 1.88. The “O.D. 490/630 at 0.0625 µg/mL” value [2] was 1.88, the “O.D. 490/630 at 0.125 µg/mL” value [2] was 1.85 and the “O.D. 490/630 at 0.25 µg/mL” value [2] was 1.84. For the same binder, the “O.D. 490/630 at 0.5 µg/mL” value [2] was 1.82, the “O.D. 490/630 at 1 µg/mL” value [2] was 1.8 and the Kd [4] was 1.95 nM. The koff [4] was 0.0002 s⁻¹, the kon [4] was 103000 M⁻¹ s⁻¹ and the “EC50 (read off the curve)” value [5] was roughly 2 ng/mL. The “O.D. 490/630 at 0 µg/mL (blank)” value [5] was 0.069, the “O.D. 490/630 at 0.000064 µg/mL” value [5] was 0.139 and the “O.D. 490/630 at 0.00032 µg/mL” value [5] was 0.287. The “O.D. 490/630 at 0.0016 µg/mL” value [5] was 0.851, the “O.D. 490/630 at 0.008 µg/mL” value [5] was 1.79 and the “O.D. 490/630 at 0.04 µg/mL” value [5] was 2.12. The “O.D. 490/630 at 0.2 µg/mL” value [5] was 2.1 and the “O.D. 490/630 at 1 µg/mL” value [5] was 2.06.

B6: humanized anti-PAD4 antibody derived from A11 (H4.00/L4.29, IgG1 kappa) (antibody, V domains shown)
VH: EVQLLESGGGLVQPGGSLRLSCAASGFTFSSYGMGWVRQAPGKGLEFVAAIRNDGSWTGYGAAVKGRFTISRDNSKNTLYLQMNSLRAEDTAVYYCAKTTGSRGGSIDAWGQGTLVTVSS
VL: SYELTQPPSVSVSPGQTARITCSGGGRYYYGWYQQKPGQAPVTVIYANDKRPSGIPERFSGSNSGSTTTLTISGVQAEDEADYYCGSAETSSYVFGGGTKLTVLG
notes: also called humanized A11
B6 was tested, and the “EC50 (read off the curve)” value [5] was roughly 3 ng/mL, the “O.D. 490/630 at 0 µg/mL (blank)” value [5] was 0.064 and the “O.D. 490/630 at 0.000064 µg/mL” value [5] was 0.122. The “O.D. 490/630 at 0.00032 µg/mL” value [5] was 0.245, the “O.D. 490/630 at 0.0016 µg/mL” value [5] was 0.733 and the “O.D. 490/630 at 0.008 µg/mL” value [5] was 1.7. The “O.D. 490/630 at 0.04 µg/mL” value [5] was 2.08, the “O.D. 490/630 at 0.2 µg/mL” value [5] was 2.08 and the “O.D. 490/630 at 1 µg/mL” value [5] was 2.08.

B7: humanized anti-PAD4 antibody derived from G9 (H4.00/L4.29, IgG1 kappa) (antibody, V domains shown)
VH: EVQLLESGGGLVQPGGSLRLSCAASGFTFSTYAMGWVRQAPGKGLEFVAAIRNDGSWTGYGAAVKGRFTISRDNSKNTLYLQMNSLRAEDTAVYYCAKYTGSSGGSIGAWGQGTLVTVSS
VL: B6 VL
notes: also called humanized G9
B7 was tested, and the “EC50 (read off the curve)” value [5] was roughly 3 ng/mL, the “O.D. 490/630 at 0 µg/mL (blank)” value [5] was 0.069 and the “O.D. 490/630 at 0.000064 µg/mL” value [5] was 0.116. For the same binder, the “O.D. 490/630 at 0.00032 µg/mL” value [5] was 0.252, the “O.D. 490/630 at 0.0016 µg/mL” value [5] was 0.785 and the “O.D. 490/630 at 0.008 µg/mL” value [5] was 1.66. The “O.D. 490/630 at 0.04 µg/mL” value [5] was 2.09, the “O.D. 490/630 at 0.2 µg/mL” value [5] was 2.03 and the “O.D. 490/630 at 1 µg/mL” value [5] was 2.06.
